Assays:
[1] = biological target: protein phosphatase 1 (rabbit) (UniProt P62139)
[2] = biological target: protein phosphatase 1 (rabbit) (UniProt P62139); remark: listed apart in the source

UniProt P62139, sequence (P62139 whole entry): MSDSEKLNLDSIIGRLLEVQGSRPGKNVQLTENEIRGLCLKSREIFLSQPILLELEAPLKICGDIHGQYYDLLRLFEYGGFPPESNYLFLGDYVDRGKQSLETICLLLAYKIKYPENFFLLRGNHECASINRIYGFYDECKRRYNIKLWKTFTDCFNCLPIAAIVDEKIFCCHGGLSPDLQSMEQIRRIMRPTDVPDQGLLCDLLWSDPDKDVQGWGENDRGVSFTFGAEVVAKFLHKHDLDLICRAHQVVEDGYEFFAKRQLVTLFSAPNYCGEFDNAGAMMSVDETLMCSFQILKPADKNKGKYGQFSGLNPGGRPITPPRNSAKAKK

Substance: glutathione conjugate of MCLR (peptide)
- IC50 of inhibition of PP1 activity (colorimetric protein phosphatase inhibition assay, p-nitrophenyl disodium orthophosphate, 25.0°C, pH 7.4) [1]: 86.6 μg/L
- IC50 of inhibition of PP1 activity (inhibition curves, colorimetric protein phosphatase inhibition assay) [2]: 86.6 µM

Substance: glutathione conjugate of MCRR (peptide)
- IC50 of inhibition of PP1 activity (colorimetric protein phosphatase inhibition assay, p-nitrophenyl disodium orthophosphate, 25.0°C, pH 7.4) [1]: 98.7 μg/L
- IC50 of inhibition of PP1 activity (inhibition curves, colorimetric protein phosphatase inhibition assay) [2]: 98.7 µM

— paper PMC5350311
